Experimental data as given in PMC6842305 (Journal of medicinal chemistry, 2018).

Target: Truncated WDR5 (Δ23, residues 22–334) (UniProt P61964 22-334)
Assay: NMR titration

B1: MLL1 10mer peptide Ac-ARTEVHLRKS-NH2 (peptide)
peptide: Ac-ARTEVHLRKS-NH2
B1: binds.
